The record followed here is patent US20180147257A1.

Common to all, as to experiment: cell-based or functional assay
Assay [1] has as its target LTβR on YT-1 cells (UniProt P36941).
Assay [2] concerns the target FLT1 on YT-1 cells (UniProt P17948).
The target in assay [3] is ROR2 on YT-1 cells (UniProt Q01974).
Assay [4] deals with HLA-E on YT-1 cells (UniProt P13747).
In assay [5] the target is CD163 on YT-1 cells (UniProt Q86VB7).
CD163 on YT-1 cells, sequence (Q86VB7 42-1156): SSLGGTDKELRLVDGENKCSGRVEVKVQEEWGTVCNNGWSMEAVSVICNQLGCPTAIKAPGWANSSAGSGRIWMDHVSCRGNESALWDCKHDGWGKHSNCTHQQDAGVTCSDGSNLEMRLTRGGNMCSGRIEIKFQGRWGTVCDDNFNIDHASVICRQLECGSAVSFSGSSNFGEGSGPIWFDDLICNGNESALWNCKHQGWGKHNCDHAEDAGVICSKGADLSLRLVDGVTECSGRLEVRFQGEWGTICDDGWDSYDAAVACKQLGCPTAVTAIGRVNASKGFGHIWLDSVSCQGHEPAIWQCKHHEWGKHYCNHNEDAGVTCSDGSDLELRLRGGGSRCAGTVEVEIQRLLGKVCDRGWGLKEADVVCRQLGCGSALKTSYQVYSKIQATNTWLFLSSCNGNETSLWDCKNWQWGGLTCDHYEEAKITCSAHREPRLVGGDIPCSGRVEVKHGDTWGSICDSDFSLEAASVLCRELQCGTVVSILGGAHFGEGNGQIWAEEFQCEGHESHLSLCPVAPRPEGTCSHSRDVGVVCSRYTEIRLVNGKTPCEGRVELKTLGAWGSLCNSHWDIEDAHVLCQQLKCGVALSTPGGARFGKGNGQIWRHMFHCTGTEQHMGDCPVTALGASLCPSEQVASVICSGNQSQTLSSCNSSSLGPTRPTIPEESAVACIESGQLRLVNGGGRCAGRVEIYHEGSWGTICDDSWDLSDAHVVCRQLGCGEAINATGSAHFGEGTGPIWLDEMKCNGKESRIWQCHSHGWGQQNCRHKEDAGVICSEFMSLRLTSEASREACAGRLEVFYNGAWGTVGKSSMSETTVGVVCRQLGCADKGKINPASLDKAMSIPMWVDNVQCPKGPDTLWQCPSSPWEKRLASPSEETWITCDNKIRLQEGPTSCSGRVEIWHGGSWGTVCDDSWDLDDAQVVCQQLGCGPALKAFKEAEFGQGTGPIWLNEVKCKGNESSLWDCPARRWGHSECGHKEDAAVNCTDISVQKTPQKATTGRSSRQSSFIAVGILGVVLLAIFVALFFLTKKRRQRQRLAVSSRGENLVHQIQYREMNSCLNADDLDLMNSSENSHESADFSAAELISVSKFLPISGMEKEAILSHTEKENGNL

LTβR on YT-1 cells, sequence (P36941 31-435 limits assumed): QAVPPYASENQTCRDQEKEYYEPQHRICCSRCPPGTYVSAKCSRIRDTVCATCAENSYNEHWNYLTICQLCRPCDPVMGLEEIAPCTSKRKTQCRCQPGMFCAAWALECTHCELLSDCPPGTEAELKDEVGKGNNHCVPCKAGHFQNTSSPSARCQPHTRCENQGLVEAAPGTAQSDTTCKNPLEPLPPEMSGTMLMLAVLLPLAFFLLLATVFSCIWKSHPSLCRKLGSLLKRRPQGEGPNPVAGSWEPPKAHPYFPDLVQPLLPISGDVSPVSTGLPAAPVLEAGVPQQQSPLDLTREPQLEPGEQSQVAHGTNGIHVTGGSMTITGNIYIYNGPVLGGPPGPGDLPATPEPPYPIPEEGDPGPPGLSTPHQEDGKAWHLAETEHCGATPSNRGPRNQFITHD
FLT1 on YT-1 cells, sequence (P17948 27-1338 limits assumed): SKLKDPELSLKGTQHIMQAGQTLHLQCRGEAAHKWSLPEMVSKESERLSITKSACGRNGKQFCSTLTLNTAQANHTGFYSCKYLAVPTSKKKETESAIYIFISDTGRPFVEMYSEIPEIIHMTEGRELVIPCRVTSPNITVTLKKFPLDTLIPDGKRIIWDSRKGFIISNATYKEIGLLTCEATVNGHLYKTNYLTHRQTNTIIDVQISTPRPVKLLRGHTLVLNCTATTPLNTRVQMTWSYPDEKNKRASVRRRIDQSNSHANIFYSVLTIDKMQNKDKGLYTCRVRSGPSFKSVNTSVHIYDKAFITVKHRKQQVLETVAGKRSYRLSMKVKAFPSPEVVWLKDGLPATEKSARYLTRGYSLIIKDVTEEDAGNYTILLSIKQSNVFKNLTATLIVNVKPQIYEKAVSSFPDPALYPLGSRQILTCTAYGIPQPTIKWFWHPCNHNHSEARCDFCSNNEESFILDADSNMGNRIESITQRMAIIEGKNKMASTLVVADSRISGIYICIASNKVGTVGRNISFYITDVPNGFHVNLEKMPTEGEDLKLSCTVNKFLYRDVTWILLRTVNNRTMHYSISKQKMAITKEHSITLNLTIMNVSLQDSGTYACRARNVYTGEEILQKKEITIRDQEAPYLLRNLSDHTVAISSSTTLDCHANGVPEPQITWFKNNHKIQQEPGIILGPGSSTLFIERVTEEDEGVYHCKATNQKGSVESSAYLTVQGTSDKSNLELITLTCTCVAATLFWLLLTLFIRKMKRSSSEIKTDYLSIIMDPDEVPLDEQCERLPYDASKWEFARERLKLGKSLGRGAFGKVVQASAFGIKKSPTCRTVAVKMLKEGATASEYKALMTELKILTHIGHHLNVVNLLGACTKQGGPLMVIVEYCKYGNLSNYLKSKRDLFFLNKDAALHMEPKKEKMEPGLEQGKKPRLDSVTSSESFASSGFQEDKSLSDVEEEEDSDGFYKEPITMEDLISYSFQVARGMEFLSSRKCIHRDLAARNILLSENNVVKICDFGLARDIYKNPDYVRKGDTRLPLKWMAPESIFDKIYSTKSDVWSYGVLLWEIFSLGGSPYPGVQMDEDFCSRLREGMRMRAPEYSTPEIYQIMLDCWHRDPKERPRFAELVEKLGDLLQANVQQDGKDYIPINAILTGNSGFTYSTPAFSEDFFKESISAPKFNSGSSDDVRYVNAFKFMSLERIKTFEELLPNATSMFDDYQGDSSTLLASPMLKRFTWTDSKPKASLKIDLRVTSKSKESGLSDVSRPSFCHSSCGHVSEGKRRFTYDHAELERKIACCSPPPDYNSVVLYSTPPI
HLA-E on YT-1 cells, sequence (P13747 22-358 limits assumed): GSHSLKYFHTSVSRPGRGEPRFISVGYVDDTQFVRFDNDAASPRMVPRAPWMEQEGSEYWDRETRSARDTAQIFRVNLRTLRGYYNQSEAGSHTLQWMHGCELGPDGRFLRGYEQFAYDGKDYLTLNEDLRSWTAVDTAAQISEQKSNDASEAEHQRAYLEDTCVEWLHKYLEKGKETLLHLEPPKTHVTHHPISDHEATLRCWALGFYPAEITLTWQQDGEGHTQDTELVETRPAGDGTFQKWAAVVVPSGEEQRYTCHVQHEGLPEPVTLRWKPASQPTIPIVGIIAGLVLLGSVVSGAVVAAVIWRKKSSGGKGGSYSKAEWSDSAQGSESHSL
ROR2 on YT-1 cells, sequence (Q01974 34-943 limits assumed): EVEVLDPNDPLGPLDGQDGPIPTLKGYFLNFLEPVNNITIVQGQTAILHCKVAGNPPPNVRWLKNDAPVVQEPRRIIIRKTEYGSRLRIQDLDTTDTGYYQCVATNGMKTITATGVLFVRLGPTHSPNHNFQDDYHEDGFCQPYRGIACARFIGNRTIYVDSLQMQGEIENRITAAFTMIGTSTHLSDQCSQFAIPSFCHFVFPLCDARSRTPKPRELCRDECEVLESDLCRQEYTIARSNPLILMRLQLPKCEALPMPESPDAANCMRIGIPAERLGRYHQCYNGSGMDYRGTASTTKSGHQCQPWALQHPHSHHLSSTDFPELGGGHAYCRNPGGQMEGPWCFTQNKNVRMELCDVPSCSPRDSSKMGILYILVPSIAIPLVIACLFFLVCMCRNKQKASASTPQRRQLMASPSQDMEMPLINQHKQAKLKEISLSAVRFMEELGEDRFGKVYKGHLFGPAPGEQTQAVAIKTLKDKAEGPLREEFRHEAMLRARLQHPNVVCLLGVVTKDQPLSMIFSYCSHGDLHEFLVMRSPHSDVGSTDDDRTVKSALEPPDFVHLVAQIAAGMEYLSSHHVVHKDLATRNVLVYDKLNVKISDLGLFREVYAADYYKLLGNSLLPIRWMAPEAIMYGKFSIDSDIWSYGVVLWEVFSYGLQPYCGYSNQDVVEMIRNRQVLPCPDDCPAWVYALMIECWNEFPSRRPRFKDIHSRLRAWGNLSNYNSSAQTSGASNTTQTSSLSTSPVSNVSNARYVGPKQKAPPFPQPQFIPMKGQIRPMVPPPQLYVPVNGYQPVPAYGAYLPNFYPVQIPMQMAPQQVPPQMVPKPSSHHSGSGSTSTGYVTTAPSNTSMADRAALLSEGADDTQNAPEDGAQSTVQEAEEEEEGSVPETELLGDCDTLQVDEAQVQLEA

For “fluorescently coupled BTN3A ectodomain fused to the Fc fragment of human IgG4 (Fc fusion)”, the Log 10 fold change of sgRNAs in YT-1 GeCKO library cells sorted for non-binding to BTN3A-IgG4 (Log 10 fold change) was 3.69 in assay [1]; 3.7 in assay [2]; 3.54 in assay [3]; 3.66 in assay [4]; 3.56 in assay [5].
